From US6534281

Legend:
[1] = biological target: human C-peptide (human); assay: ELISA on immobilized C-peptide; labeled antibody 0.1 ug/ml, free C-peptide 10 ug/ml
[2] = biological target: human C-peptide (human); assay: ELISA on immobilized C-peptide; labeled antibody 10 ug/ml, free C-peptide 0 ug/ml (reference)
[3] = biological target: human proinsulin (human) (UniProt P01308); assay: sandwich immunoassay, one-step, against C-peptide calibration; proinsulin 400 ng/ml; CPT-3-F11 on particles, labeled antibody PEP-001
[4] = biological target: human C-peptide (human); assay: ELISA on immobilized C-peptide; labeled antibody 0.0 ug/ml (blank), free C-peptide 10 ug/ml
[5] = biological target: human proinsulin (human) (UniProt P01308); assay: sandwich immunoassay, one-step; proinsulin 200 ng/ml; CPT-3F-11 on particles, labeled antibody 9101
[6] = biological target: human C-peptide (human); assay: sandwich immunoassay, one-step; CPT-3F-11 on particles, labeled antibody 9101
[7] = biological target: human proinsulin (human) (UniProt P01308); assay: sandwich immunoassay, two-step, against C-peptide calibration; proinsulin 200 ng/ml; CPT-3-F11 on particles, labeled antibody 9101
[8] = biological target: human proinsulin (human) (UniProt P01308); assay: sandwich immunoassay, two-step; proinsulin 50 ng/ml; CPT-3F-11 on particles, labeled antibody 9101
[9] = biological target: human proinsulin (human) (UniProt P01308); assay: sandwich immunoassay, one-step, against C-peptide calibration; proinsulin 50 ng/ml; CPT-3-F11 on particles, labeled antibody PEP-001
[10] = biological target: human C-peptide (human); assay: ELISA on immobilized C-peptide; labeled antibody 1.0 ug/ml, free C-peptide 1.0 ug/ml
[11] = biological target: human proinsulin (human) (UniProt P01308); assay: sandwich immunoassay, one-step, against C-peptide calibration; proinsulin 200 ng/ml; CPT-3-F11 on particles, labeled antibody PEP-001
[12] = biological target: human C-peptide (human); assay: ELISA on immobilized C-peptide; labeled antibody 10 ug/ml, free C-peptide 1.0 ug/ml
[13] = biological target: human C-peptide (human); assay: ELISA on immobilized C-peptide; labeled antibody 1.0 ug/ml, free C-peptide 0 ug/ml (reference)
[14] = biological target: human C-peptide (human); assay: ELISA on immobilized C-peptide; labeled antibody 10 ug/ml, free C-peptide 0 ug/ml
[15] = biological target: human proinsulin (human) (UniProt P01308); assay: sandwich immunoassay, two-step, against C-peptide calibration; proinsulin 50 ng/ml; CPT-3-F11 on particles, labeled antibody 9101
[16] = biological target: human C-peptide (human); assay: ELISA on immobilized C-peptide; labeled antibody 0.0 ug/ml (blank), free C-peptide 0 ug/ml
[17] = biological target: human proinsulin (human) (UniProt P01308); assay: sandwich immunoassay, one-step, against C-peptide calibration; proinsulin 50 ng/ml; CPT-3-F11 on particles, labeled antibody 9101
[18] = biological target: human proinsulin (human) (UniProt P01308); assay: sandwich immunoassay, one-step, against C-peptide calibration; proinsulin 200 ng/ml; CPT-3-F11 on particles, labeled antibody 9101
[19] = biological target: human proinsulin (human) (UniProt P01308); assay: sandwich immunoassay, one-step; proinsulin 50 ng/ml; CPT-3F-11 on particles, labeled antibody 9101
[20] = biological target: modified C-peptide (human C-peptide having Arg-Arg bound to its N-terminal and Lys-Arg bound to its C-terminal) (human); assay: sandwich immunoassay, two-step, against C-peptide calibration; modified C-peptide 5 ng/ml; CPT-3F-11 on particles, labeled antibody PEP-001
[21] = biological target: human C-peptide (human); assay: ELISA on immobilized C-peptide; labeled antibody 0.1 ug/ml, free C-peptide 1.0 ug/ml
[22] = biological target: human proinsulin (human) (UniProt P01308); assay: sandwich immunoassay, two-step, against C-peptide calibration; proinsulin 400 ng/ml; CPT-3-F11 on particles, labeled antibody PEP-001
[23] = biological target: modified C-peptide (human C-peptide having Arg-Arg bound to its N-terminal and Lys-Arg bound to its C-terminal) (human); assay: sandwich immunoassay, one-step, against C-peptide calibration; modified C-peptide 5 ng/ml; CPT-3F-11 on particles, labeled antibody 9101
[24] = biological target: human proinsulin (human) (UniProt P01308); assay: sandwich immunoassay, two-step; proinsulin 400 ng/ml; CPT-3F-11 on particles, labeled antibody 9101
[25] = biological target: human proinsulin (human) (UniProt P01308); assay: sandwich immunoassay, one-step, against C-peptide calibration; proinsulin 400 ng/ml; CPT-3-F11 on particles, labeled antibody 9101
[26] = biological target: human C-peptide (human); assay: ELISA on immobilized C-peptide; labeled antibody 0.1 ug/ml, free C-peptide 0 ug/ml
[27] = biological target: human C-peptide (human); assay: ELISA on immobilized C-peptide; labeled antibody 0.0 ug/ml (blank), free C-peptide 0.1 ug/ml
[28] = biological target: human C-peptide (human); assay: sandwich immunoassay, two-step; CPT-3F-11 on particles, labeled antibody 9101
[29] = biological target: human proinsulin (human) (UniProt P01308); assay: sandwich immunoassay, one-step; proinsulin 400 ng/ml; CPT-3F-11 on particles, labeled antibody 9101
[30] = biological target: human proinsulin (human) (UniProt P01308); assay: sandwich immunoassay, two-step, against C-peptide calibration; proinsulin 200 ng/ml; CPT-3-F11 on particles, labeled antibody PEP-001
[31] = biological target: human C-peptide (human); assay: ELISA on immobilized C-peptide; labeled antibody 1.0 ug/ml, free C-peptide 0 ug/ml
[32] = biological target: modified C-peptide (human C-peptide having Arg-Arg bound to its N-terminal and Lys-Arg bound to its C-terminal) (human); assay: sandwich immunoassay, one-step, against C-peptide calibration; modified C-peptide 5 ng/ml; CPT-3F-11 on particles, labeled antibody PEP-001
[33] = biological target: human C-peptide (human); assay: sandwich immunoassay, two-step; CPT-3F-11 on particles, labeled antibody PEP-001

Sequence of human C-peptide (human) (peptide, as listed by the source): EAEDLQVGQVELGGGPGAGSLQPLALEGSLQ
Sequence of modified C-peptide (human C-peptide having Arg-Arg bound to its N-terminal and Lys-Arg bound to its C-terminal) (human) (peptide, as listed by the source): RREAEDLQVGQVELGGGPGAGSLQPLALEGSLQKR
Sequence of UniProt P01308 (P01308 25-110): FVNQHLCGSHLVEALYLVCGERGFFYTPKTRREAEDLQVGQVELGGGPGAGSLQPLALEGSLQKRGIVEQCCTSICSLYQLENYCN

- Absorbance (absorbance at 405 nm) [1]: 0
- Binding Ratio [1]: 0%
- Binding Ratio [2]: 100%
- Cross-reactivity (%) to Human Proinsulin [3]: > 15%
- Absorbance (absorbance at 405 nm) [4]: 0
- Binding Ratio [4]: 0%
- counts of chemiluminescence [5]: 51300 counts
- 2S/N value [6]: 0.008 ng/mL
- Cross-reactivity (%) to Human Proinsulin [7]: 1.2%
- counts of chemiluminescence [8]: 4400 counts
- Cross-reactivity (%) to Human Proinsulin [9]: 56.8%
- Absorbance (absorbance at 405 nm) [10]: 0.062
- Binding Ratio [10]: 3.2%
- Cross-reactivity (%) to Human Proinsulin [11]: > 30%
- Absorbance (absorbance at 405 nm) [12]: 0.059
- Binding Ratio [12]: 2.7%
- Binding Ratio [13]: 100%
- Absorbance (absorbance at 405 nm) [14]: 2.17
- Cross-reactivity (%) to Human Proinsulin [15]: 0.4%
- Absorbance (absorbance at 405 nm) [16]: 0
- Binding Ratio [16]: 0%
- Cross-reactivity (%) to Human Proinsulin [17]: 0.9%
- Cross-reactivity (%) to Human Proinsulin [18]: 2.6%
- counts of chemiluminescence [19]: 4140 counts
- Cross-reactivity (%) to Modified C-peptide [20]: 53.2%
- Absorbance (absorbance at 405 nm) [21]: 0.026
- Binding Ratio [21]: 1.7%
- Cross-reactivity (%) to Human Proinsulin [22]: > 15%
- Cross-reactivity (%) to Modified C-peptide [23]: 0.5%
- counts of chemiluminescence [24]: 99400 counts
- Cross-reactivity (%) to Human Proinsulin [25]: 3%
- Absorbance (absorbance at 405 nm) [26]: 1.52
- Absorbance (absorbance at 405 nm) [27]: 0
- Binding Ratio [27]: 0%
- 2S/N value [28]: 0.005 ng/mL
- counts of chemiluminescence [29]: 118000 counts
- Cross-reactivity (%) to Human Proinsulin [30]: > 30%
- Absorbance (absorbance at 405 nm) [31]: 1.94
- Cross-reactivity (%) to Modified C-peptide [32]: 62.7%
- 2S/N value [33]: 0.006 ng/mL
Substance: anti-human C-peptide monoclonal antibody CPT-3-F11 (Dako)
